Measured values: patent US20030134799A1
Read-outs that look alike come from different tables or passages of the source.

Columns and labels:
[1] = target: NMDA receptor of well-washed rat forebrain membranes (rat) (UniProt Q9R1M7)
[2] = target: NMDA receptor of primary cultures of rat cerebellar granule cells (rat); assay: cell-based or functional assay
[3] = target: NMDA receptor of well-washed rat forebrain membranes (rat) (UniProt Q9R1M7); assay: cell-based or functional assay
[4] = target: NMDA receptor of well-washed rat forebrain membranes (rat) (UniProt Q9R1M7); assay: displacement of [3H]ifenprodil, polyamine-sensitive site

Sequence of NMDA receptor of well-washed rat forebrain membranes (rat) (Q9R1M7 24-1135): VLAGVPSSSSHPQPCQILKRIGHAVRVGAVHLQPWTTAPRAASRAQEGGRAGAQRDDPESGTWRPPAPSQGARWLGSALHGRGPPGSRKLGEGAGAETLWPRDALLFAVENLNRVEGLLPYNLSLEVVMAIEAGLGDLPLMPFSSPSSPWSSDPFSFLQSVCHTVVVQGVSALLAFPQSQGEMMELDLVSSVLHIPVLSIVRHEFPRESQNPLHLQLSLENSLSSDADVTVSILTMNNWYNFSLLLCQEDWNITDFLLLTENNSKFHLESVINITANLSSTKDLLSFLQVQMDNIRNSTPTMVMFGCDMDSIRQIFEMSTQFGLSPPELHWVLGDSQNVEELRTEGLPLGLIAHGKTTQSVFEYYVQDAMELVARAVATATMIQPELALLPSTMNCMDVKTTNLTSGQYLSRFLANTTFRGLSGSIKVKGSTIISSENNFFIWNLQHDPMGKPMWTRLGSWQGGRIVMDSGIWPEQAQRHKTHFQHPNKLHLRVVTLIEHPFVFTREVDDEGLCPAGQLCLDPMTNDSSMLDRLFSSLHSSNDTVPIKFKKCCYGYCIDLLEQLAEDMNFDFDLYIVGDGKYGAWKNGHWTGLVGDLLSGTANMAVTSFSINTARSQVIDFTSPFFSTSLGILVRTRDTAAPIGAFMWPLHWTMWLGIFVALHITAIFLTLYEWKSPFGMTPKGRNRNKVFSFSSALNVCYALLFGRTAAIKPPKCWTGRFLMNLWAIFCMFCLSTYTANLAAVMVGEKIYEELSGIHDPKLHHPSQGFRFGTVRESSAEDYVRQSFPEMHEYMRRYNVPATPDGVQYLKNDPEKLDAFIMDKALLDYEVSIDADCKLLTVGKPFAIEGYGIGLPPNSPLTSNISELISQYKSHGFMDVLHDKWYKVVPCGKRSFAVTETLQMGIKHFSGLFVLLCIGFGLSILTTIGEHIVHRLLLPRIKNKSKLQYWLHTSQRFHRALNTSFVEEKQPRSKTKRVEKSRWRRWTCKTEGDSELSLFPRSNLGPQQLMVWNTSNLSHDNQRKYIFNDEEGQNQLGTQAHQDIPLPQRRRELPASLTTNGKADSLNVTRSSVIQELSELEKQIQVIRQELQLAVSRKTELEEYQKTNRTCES

In the case of Conantokin-G (peptide), the IC50 [1] is reported as greater than 5000 nM, the IC50, inhibition of NMDA-stimulated increases in cyclic GMP formation [2] is reported as 300 nM and the % Inh, spermine-enhanced [3H]MK-801 binding [3] is reported as 100%. It also gave a % Sti, [3H]MK-801 binding without spermine [3] of 0%, an IC50, antagonism of Gly-stimulated [3H]MK-801 binding, representative experiment [3] of 835 nM and an IC50, inhibition of spermine-enhanced [3H]MK-801 binding, typical experiment [3] of 275 nM. It also gave an IC (µM), inhibition of spermine-enhanced [3H]MK-801 binding [3] of 0.16 µM and an IC50 [4] greater than 5000 nM.
